Measurements from IntAct's records for PubMed 11779503.

B1: Mothers against decapentaplegic homolog 2 (Homo sapiens), Q15796 (parent)
chain: MSSILPFTPPVVKRLLGWKKSAGGSGGAGGGEQNGQEEKWCEKAVKSLVKKLKKTGRLDELEKAITTQNCNTKCVTIPSTCSEIWGLSTPNTIDQWDTTGLYSFSEQTRSLDGRLQVSHRKGLPHVIYCRLWRWPDLHSHHELKAIENCEYAFNLKKDEVCVNPYHYQRVETPVLPPVLVPRHTEILTELPPLDDYTHSIPENTNFPAGIEPQSNYIPETPPPGYISEDGETSDQQLNQSMDTGSPAELSPTTLSPVNHSLDLQPVTYSEPAFWCSIAYYELNQRVGETFHASQPSLTVDGFTDPSNSERFCLGLLSNVNRNATVEMTRRHIGRGVRLYYIGGEVFAECLSDSAIFVQSPNCNQRYGWHPATVCKIPPGCNLKIFNNQEFAALLAQSVNQGFEAVYQLTRMCTIRMSFVKGWGAEYRRQTVTSTPCWIELHLNGPLQWLDKVLTQMGSPSVRCSSMS
B2: Mothers against decapentaplegic homolog 4 (Homo sapiens), Q13485 (parent)
chain: MDNMSITNTPTSNDACLSIVHSLMCHRQGGESETFAKRAIESLVKKLKEKKDELDSLITAITTNGAHPSKCVTIQRTLDGRLQVAGRKGFPHVIYARLWRWPDLHKNELKHVKYCQYAFDLKCDSVCVNPYHYERVVSPGIDLSGLTLQSNAPSSMMVKDEYVHDFEGQPSLSTEGHSIQTIQHPPSNRASTETYSTPALLAPSESNATSTANFPNIPVASTSQPASILGGSHSEGLLQIASGPQPGQQQNGFTGQPATYHHNSTTTWTGSRTAPYTPNLPHHQNGHLQHHPPMPPHPGHYWPVHNELAFQPPISNHPAPEYWCSIAYFEMDVQVGETFKVPSSCPIVTVDGYVDPSGGDRFCLGQLSNVHRTEAIERARLHIGKGVQLECKGEGDVWVRCLSDHAVFVQSYYLDREAGRAPGDAVHKIYPSAYIKVFDLRQCHRQMQQQAATAQAAAAAQAAAVAGNIPGPGSVGGIAPAISLSAAAGIGVDDLRRLCILRMSFVKGWGPDYPRQSIKETPCWIEIHLHRALQLLDEVLHTMPIADPQPLD

Variants of: B1
Conditions: with smad4_human SMAD4, Q13485

Variant | effect of a mutation on the interaction
D450H | disrupting interaction strength
D300H;K375A | with no effect
V319D | with no effect
Y406H | with no effect
R310H;K375A | with no effect
K375A | with no effect
K375H;K420A | with no effect
K420A | with no effect
W368H | with no effect
D300H;R310H | with no effect
D300H | decreasing interaction strength
R428A | with no effect
R310H;K420A | with no effect
N387P | with no effect
R310H | decreasing interaction strength
Y426A | with no effect
D300H;K420A | with no effect

Variants of: B2
Conditions: with smad2_human SMAD2, Q15796

Variant | effect of a mutation on the interaction
D351H | disrupting interaction strength
K428A | decreasing interaction strength
V370D | with no effect
Y513A | with no effect
R420H | with no effect
R515A | decreasing interaction strength
D537H | with no effect
K507A | decreasing interaction strength
R441P | with no effect
D493H | with no effect
R361H | disrupting interaction strength
